The values that follow come from article PMC3696110, “Hsp70 Oligomerization Is Mediated by an Interaction between the Interdomain Linker and the Substrate-Binding Domain” (PLoS ONE, 2013).

This test deals with T1, SBD641 (human Hsp70 residues 384-641) (human, UniProt P0DMV8 384-641).
T1 construct: Thrombin cleavage of the His tag is stated as >99% for all variants; also called full-length SBD; not shown: His6, N-terminal, cleaved
Put plainly: native MS; nESI-MS of SBD641 in the presence of NR peptide at a 1:1 molar ratio; 150 mM ammonium acetate, pH 7.4. The conditions noted are these: both partners purified.

T1 sequence (P0DMV8 384-641): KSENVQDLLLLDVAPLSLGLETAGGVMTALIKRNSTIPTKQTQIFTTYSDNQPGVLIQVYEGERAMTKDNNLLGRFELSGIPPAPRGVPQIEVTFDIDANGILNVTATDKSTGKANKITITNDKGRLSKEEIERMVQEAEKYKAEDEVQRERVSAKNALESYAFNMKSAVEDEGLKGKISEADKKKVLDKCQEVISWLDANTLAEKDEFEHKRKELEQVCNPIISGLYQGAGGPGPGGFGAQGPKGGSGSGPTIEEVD

B1: NR peptide (NRLLLTG), non-dansylated (peptide)
peptide: NRLLLTG
notes: model Hsp70 substrate peptide; the peptide of that experiment may have carried the dansyl group (surmise); also called ND-NR; source: synthetic peptide (Genemed Synthesis Inc.)
Turning to B1, the binding result is given as “binds”.
